According to paper PMC2841689:

Biological target: N74D HIV-1 CA-NC complexes (HIV-1)
Test: co-sedimentation

| Substance | fold difference in co-purification, wild-type over N74D CA-NC [fold] | fold more precipitated than by wild-type CA-NC complexes [fold] |
| --- | --- | --- |
| human CPSF6-358 (C-terminally truncated CPSF6), HA-tagged (from UniProt Q16630-2 1-358) (domain or fragment) | 3.9 | – |
| rhesus TRIM5alpha, HA-tagged (from UniProt Q0PF16 1-497) (natural protein) | – | 2 |
